Data on five sequences can be found in the supplement of paper PMC5998384.

For data set [1], the system named is HeLa Kyoto. Kind of data set: thermal stability score vs G1/S (z-score of summed log2 fold changes over temperatures); higher = more thermally stable than in G1/S.
For data set [2], the system named is HeLa Kyoto. In words: solubility change mitosis vs G1/S (difference of NP-40 vs SDS log2 ratios) (log2 ratio difference); higher = more soluble in mitosis.
In data set [3] the test system is HeLa Kyoto. Kind of data set: melting temperature (median over replicates), in situ; higher = more thermally stable.
Data set [4] has as its system HeLa Kyoto. Kind of data set: solubility in G1/S (NP-40 vs SDS abundance) (log2 ratio); higher = more soluble. The settings on record: cell cycle stage: G1/S.
The mark [5] stands for this setting: cell cycle stage: early G1 (4.5 h after nocodazole release).
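Throughout, for melting temperature (median over replicates), in situ: HeLa Kyoto cells synchronized by double thymidine or nocodazole block, proteins quantified by TMT10plex mass spectrometry, three independent biological replicates.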
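Throughout, for solubility change mitosis vs G1/S (difference of NP-40 vs SDS log2 ratios): synchronized HeLa Kyoto cells (double thymidine block for G1/S, nocodazole release for mitosis), protein amounts in NP-40 versus SDS lysates quantified by mass spectrometry, three biological replicates.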
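Throughout, for solubility in G1/S (NP-40 vs SDS abundance): HeLa Kyoto cells arrested at G1/S by double thymidine block, proteins quantified by TMT10plex mass spectrometry in mild NP-40 versus SDS extracts, three biological replicates.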
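Throughout, for thermal stability score vs G1/S (z-score of summed log2 fold changes over temperatures): synchronized HeLa Kyoto cells, proteins quantified by TMT10plex mass spectrometry, three biological replicates, mitosis taken 0.5 h after nocodazole release, G1/S directly after double thymidine block.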

Consider “MRVAVAGCCHGELDKIYETLALAERRGPGPVDLLLCCGDFQAVRNEADLRCMAVPPKYRHMQTFYRYYSGEKKAPVLTLFIGGNHEASNHLQELPYGGWVAPNIYYLGLAGVVKYRGVRIGGISGIFKSHDYRKGHFECPPYNSSTIRSIYHVRNIEVYKLKQLKQPIDIFLSHDWPRSIYHYGNKKQLLKTKSFFRQEVENNTLGSPAASELLEHLKPTYWFSAHLHVKFAALMQHQAKDKGQTARATKFLALDKCLPHRDFLQILEIEHDPSAPDYLEYDIEWLTILRATDDLINVTGRLWNMPENNGLHARWDYSATEEGMKEVLEKLNHDLKVPCNFSVTAACYDPSKPQTQMQLIHRINPQTTEFCAQLGIIDINVRLQKSKEEHHVCGEYEEQDDVESNDSGEDQSEYNTDTSALSSINPDEIMLDEEEDEDSIVSAHSGMNTPSVEPSDQASEFSASFSDVRILPGSMIVSSDDTVDSTIDREGKPGGTVESGNGEDLTKVPLKRLSDEHEPEQRKKIKRRNQAIYAAVDDDDDDAA [DBR1]”, for which the thermal stability score with HeLa Kyoto [1] (setting [5]) came out at 1.33; in the data set with HeLa Kyoto [1] (cell cycle stage: mitosis), 3.28. In the data set with HeLa Kyoto [2], the “solubility change mitosis (log2)” value is -0.212. Besides, the figures for the melting temperature in the data set with HeLa Kyoto [3] (cell cycle stage: G1/S) and in the data set with HeLa Kyoto [3] (cell cycle stage: mitosis) were 54 °C and 55.1 °C, respectively. Besides, in the data set on HeLa Kyoto [4], the “solubility in G1/S (log2)” value was -0.0568.

Consider “MRVESGSAQERGILLESLSTLLEKTTASHEGRAPGNRELTDLLPPEVCSLLNPAAIYANNEISLRDVEVYGFDYDYTLAQYADALHPEIFSTARDILIEHYKYPEGIRKYDYNPSFAIRGLHYDIQKSLLMKIDAFHYVQLGTAYRGLQPVPDEEVIELYGGTQHIPLYQMSGFYGKGPSIKQFMDIFSLPEMALLSCVVDYFLGHSLEFDQAHLYKDVTDAIRDVHVKGLMYQWIEQDMEKYILRGDETFAVLSRLVAHGKQLFLITNSPFSFVDKGMRHMVGPDWRQLFDVVIVQADKPSFFTDRRKPFRKLDEKGSLQWDRITRLEKGKIYRQGNLFDFLRLTEWRGPRVLYFGDHLYSDLADLMLRHGWRTGAIIPELEREIRIINTEQYMHSLTWQQALTGLLERMQTYQDAESRQVLAAWMKERQELRCITKALFNAQFGSIFRTFHNPTYFSRRLVRFSDLYMASLSCLLNYRVDFTFYPRRTPLQHEAPLWMDQLCTGCMKTPFLGDMAHIR [NT5DC2]”, for which the thermal stability score was -0.133 with HeLa Kyoto [1] (setting [5]) and 0.934 in the data set on HeLa Kyoto [1] (cell cycle stage: mitosis). The “solubility change mitosis (log2)” value in the data set on HeLa Kyoto [2] is -0.0879. The melting temperature in the data set with HeLa Kyoto [3] (cell cycle stage: G1/S) worked out at 53.1 °C; in the data set with HeLa Kyoto [3] (cell cycle stage: mitosis) it was 52.6 °C. Further, in the data set on HeLa Kyoto [4], the “solubility in G1/S (log2)” value is -0.284.

“MRWILFIGALIGSSICGQEKFFGDQVLRINVRNGDEISKLSQLVNSNNLKLNFWKSPSSFNRPVDVLVPSVSLQAFKSFLRSQGLEYAVTIEDLQALLDNEDDEMQHNEGQERSSNNFNYGAYHSLEAIYHEMDNIAADFPDLARRVKIGHSFENRPMYVLKFSTGKGVRRPAVWLNAGIHSREWISQATAIWTARKIVSDYQRDPAITSILEKMDIFLLPVANPDGYVYTQTQNRLWRKTRSRNPGSSCIGADPNRNWNASFAGKGASDNPCSEVYHGPHANSEVEVKSVVDFIQKHGNFKGFIDLHSYSQLLMYPYGYSVKKAPDAEELDKVARLAAKALASVSGTEYQVGPTCTTVYPASGSSIDWAYDNGIKFAFTFELRDTGTYGFLLPANQIIPTAEETWLGLKTIMEHVRDNLY [CPA4]”: the figures for the thermal stability score with HeLa Kyoto [1] (setting [5]) and in the data set with HeLa Kyoto [1] (cell cycle stage: mitosis) were 1.94 and 1.93, respectively. Further, the “solubility change mitosis (log2)” value with HeLa Kyoto [2] was 0.0829. Also, the melting temperature in the data set with HeLa Kyoto [3] (cell cycle stage: G1/S) was found to be 57.4 °C; in the data set on HeLa Kyoto [3] (cell cycle stage: mitosis) it was 58.7 °C. In addition, in the data set on HeLa Kyoto [4], the “solubility in G1/S (log2)” value was 0.184.

Take “MSADAAAGAPLPRLCCLEKGPNGYGFHLHGEKGKLGQYIRLVEPGSPAEKAGLLAGDRLVEVNGENVEKETHQQVVSRIRAALNAVRLLVVDPETDEQLQKLGVQVREELLRAQEAPGQAEPPAAAEVQGAGNENEPREADKSHPEQRELRPRLCTMKKGPSGYGFNLHSDKSKPGQFIRSVDPDSPAEASGLRAQDRIVEVNGVCMEGKQHGDVVSAIRAGGDETKLLVVDRETDEFFKKCRVIPSQEHLNGPLPVPFTNGEIQKENSREALAEAALESPRPALVRSASSDTSEELNSQDSPPKQDSTAPSSTSSSDPILDFNISLAMAKERAHQKRSSKRAPQMDWSKKNELFSNL [SLC9A3R1]”: the values for the thermal stability score in the data set with HeLa Kyoto [1] (setting [5]) and with HeLa Kyoto [1] (cell cycle stage: mitosis) were -1.17 and -0.944, respectively. Moreover, the “solubility change mitosis (log2)” value in the data set on HeLa Kyoto [2] was -0.0214. For the same sequence, the melting temperature was 56.5 °C with HeLa Kyoto [3] (cell cycle stage: G1/S) and 57.1 °C in the data set on HeLa Kyoto [3] (cell cycle stage: mitosis). Moreover, the “solubility in G1/S (log2)” value in the data set with HeLa Kyoto [4] amounted to 0.536.

“MSADGAEADGSTQVTVEEPVQQPSVVDRVASMPLISSTCDMVSAAYASTKESYPHIKTVCDAAEKGVRTLTAAAVSGAQPILSKLEPQIASASEYAHRGLDKLEENLPILQQPTEKVLADTKELVSSKVSGAQEMVSSAKDTVATQLSEAVDATRGAVQSGVDKTKSVVTGGVQSVMGSRLGQMVLSGVDTVLGKSEEWADNHLPLTDAELARIATSLDGFDVASVQQQRQEQSYFVRLGSLSERLRQHAYEHSLGKLRATKQRAQEALLQLSQVLSLMETVKQGVDQKLVEGQEKLHQMWLSWNQKQLQGPEKEPPKPEQVESRALTMFRDIAQQLQATCTSLGSSIQGLPTNVKDQVQQARRQVEDLQATFSSIHSFQDLSSSILAQSRERVASAREALDHMVEYVAQNTPVTWLVGPFAPGITEKAPEEKK [PLIN3]”: the thermal stability score was -0.144 in the data set with HeLa Kyoto [1] (setting [5]) and 0.126 in the data set with HeLa Kyoto [1] (cell cycle stage: mitosis). Also, in the data set with HeLa Kyoto [2], the “solubility change mitosis (log2)” value turned out to be 0.0467. Moreover, the melting temperature with HeLa Kyoto [3] (cell cycle stage: G1/S) amounted to 56.7 °C; in the data set on HeLa Kyoto [3] (cell cycle stage: mitosis), 57.3 °C. In addition, the “solubility in G1/S (log2)” value in the data set on HeLa Kyoto [4] turned out to be 0.715.
